One block for each molecule: values may come before it.
Experiments:
[1] = tested on: M21 subunit; test: Far Western blotting: interaction with the M21 subunit; type: binding, chicken; settings: for recognised by digoxigenin-labelled M21 subunit in Far Western blotting: probe 0.2 μg/ml
Description: A) PP1M 5 μg (track 1), 10 μg bacterial extract containing M110-(R714-I1004) (track 2), MBP-M110-(R714-I004) 1 μg (track 3), MBP-M110-(R714-L934) 1 μg (track 4), MBP-M110-(K933-I1004) 1 μg (track 5), MBP 1 μg (track 6), M110-(M1-E309) 2 μg (lane 7) and M110-(M1-S477) 2 μg (track 8) were run on a 12% SDS/polyacrylamide gel and stained with Coomassie Blue. B) same as A) except that 10-fold less protein was electrophoresed and after transfer to nitrocellulose the proteins were probed with digoxigenin-labelled M21 subunit (0.2 μg/ml). C) same as B) except that, after electrophoresis, the proteins were transferred to nitrocellulose and probed with digoxigenin-labelled M21-(M1-L146) (0.2 μg/ml).
A) GST-M21 5 μg (track 1), M21 5 μg (track 2), M21-(M1-L146) 5 μg (track 3), M21-(M1-E110) 20 μg (track 4) and M21-(E110-K186) 5 μg (track 5) were run on 16.5% polyacrylamide gels and stained with Coomassie Blue. The marker proteins ovalbumin (43 kDa) and carbonic anhydrase (29 kDa) are indicated. B) GST-M21 0.5 μg (track 1), M21 0.5 μg (track 2), M21-M1-L146) 0.5 μg (track 3), M21-(M1-E110) 5 μg (track 4) and M21-(E110-K186) 5 μg (track 5) were electrophoresed as in A) and after transfer to nitrocellulose the blots were probed with digoxigenin-labelled MBP-M110-(K933-I1004) (0.2 μg/Ml). C) same as B) except that, after electrophoresis, the proteins were transferred to nitrocellulose and probed with digoxigenin-labelled M21 subunit (0.2 μg/ml).
PP1M (0.5 μAg) was electrophoresed on a 12% SDS/polyacrylamide gel, transferred to nitrocellulose and probed with digoxigenin-labelled M21 subunit (0.2 μg/ml) (track 1) or digoxigenin-labelled M21-(M1-L146) (0.2 μg/ml) (track 2). The positions of the M110 subunit, the M21 subunit and PP1c are marked.
Proteins were labelled with digoxigenin and Far Western analyses carried out as described, except that the digoxigenin-labelled probe was used at a concentration of 0.2 μg/ml instead of 2 μg/ml. SDS/polyacrylamide gel electrophoresis was carried out on 7.5-15% gels according to Laemmli and on 16.5% gels according to Schagger and von Jagow. Protein was estimated according to Bradford.

[2] = target: T1, myosin (Gallus gallus, UniProt P10587); test: Myosin binding assay (pelleting with myosin); set-up: species or system chicken; settings: myosin 1 μM, 15 min 0° C.
T1 construct: from tissue; host or cells: chicken gizzard
Description: The PP1 catalytic subunit (PP1c), PP1M, or PP1M lacking the M21 subunit, PP1M(ΔM21), each at 30 nM, were incubated for 15 min at 0° C. with 1 μM myosin and centrifuged (see Methods of Example 3). […] The results shown are the average (±S.E.M.) for three separate experiments each assayed in duplicate.
(A); PP1M, M110-(M1-S477) and GST-M110-(M377-K976), each at 30 nM were incubated for 15 min at 0° C. with 1 μM myosin and centrifuged. The supernatants (S), resuspended pellets (P) and the suspension before centrifugation (T, total) were electrophoresed on 12% SDS/polyacrylamide gels, transferred to nitrocellulose and immunoblotted with antibodies raised against the PP1M holoenzyme. No protein was pelleted in the absence of myosin (not shown). The positions of the marker proteins myosin heavy chain (200 kDa), glycogen phosphorylase (97 kDa), bovine serum albumin (66 kDa), ovalbumin (43 kDa), carbonic anhydrase (29 kDa) and soybean trypsin inhibitor (20 kDa) are indicated. (B) The experiments were carried out as in (A), except that the M110 fragments and M21 subunit were used at 100 nM, the 8.5 kDa M110-(K933-I1004) fragment was electrophoresed on a 16.5% polyacrylamide gel and immunoblotting was carried out with affinity purified antibodies (see Methods). A small amount of M110-(R714-I1004) pelleted in the absence of myosin. […] No other protein was pelleted in the absence of myosin.
(A); Myosin (1 μM) was mixed with 50 μM, 20 μM or 10 μM M21 subunit to give the molar ratios M21:myosin dimer indicated. After 15 min at 0° C., the solutions were centrifuged and the supernatants (S), resuspended pellets (P) and the suspension before centrifugation (T, total) were electrophoresed on 12% SDS/polyacrylamide gels and stained with Coomassie blue. The positions of the myosin heavy chain (MHC) and the M21 subunit are indicated. The myosin light chains migrate faster than the M21 subunit and are not visible at these loadings.
Myosin binding assays. Myosin (0.5 mg/ml, 1 μM in terms of myosin heavy chains) in 10 mM Hepes pH 7.5, 50 mM KCl, 5 mM MgCl2, 0.1% (by vol) 2-mercaptoethanol, was mixed with PP1M, M21 subunit, or fragments of the M110 and M21 subunits, at the concentrations indicated in figure legends. After incubation for 15 min at 0° C., the solutions were centrifuged for 2 min at 13,000×g, the supernatants removed, and the pellets washed twice in 10 mM Hepes pH 7.5, 50 mM KCl, 5 mM MgCl2, 0.1% (by vol) 2-mercaptoethanol before resuspension in 50 mM Tris-HCl pH 7.5, 0.1 mM EGTA, 0.03% (by mass) Brij 35, 0.6 M NaCl, 0.1% (by vol) 2-mercaptoethanol. Aliquots of the supernatant, the resuspended pellet and the suspension before centrifugation were either assayed for myosin P-light chain phosphatase activity or denatured in SDS and analysed by SDS/polyacrylamide gel electrophoresis.

T1 sequence (P10587 whole entry): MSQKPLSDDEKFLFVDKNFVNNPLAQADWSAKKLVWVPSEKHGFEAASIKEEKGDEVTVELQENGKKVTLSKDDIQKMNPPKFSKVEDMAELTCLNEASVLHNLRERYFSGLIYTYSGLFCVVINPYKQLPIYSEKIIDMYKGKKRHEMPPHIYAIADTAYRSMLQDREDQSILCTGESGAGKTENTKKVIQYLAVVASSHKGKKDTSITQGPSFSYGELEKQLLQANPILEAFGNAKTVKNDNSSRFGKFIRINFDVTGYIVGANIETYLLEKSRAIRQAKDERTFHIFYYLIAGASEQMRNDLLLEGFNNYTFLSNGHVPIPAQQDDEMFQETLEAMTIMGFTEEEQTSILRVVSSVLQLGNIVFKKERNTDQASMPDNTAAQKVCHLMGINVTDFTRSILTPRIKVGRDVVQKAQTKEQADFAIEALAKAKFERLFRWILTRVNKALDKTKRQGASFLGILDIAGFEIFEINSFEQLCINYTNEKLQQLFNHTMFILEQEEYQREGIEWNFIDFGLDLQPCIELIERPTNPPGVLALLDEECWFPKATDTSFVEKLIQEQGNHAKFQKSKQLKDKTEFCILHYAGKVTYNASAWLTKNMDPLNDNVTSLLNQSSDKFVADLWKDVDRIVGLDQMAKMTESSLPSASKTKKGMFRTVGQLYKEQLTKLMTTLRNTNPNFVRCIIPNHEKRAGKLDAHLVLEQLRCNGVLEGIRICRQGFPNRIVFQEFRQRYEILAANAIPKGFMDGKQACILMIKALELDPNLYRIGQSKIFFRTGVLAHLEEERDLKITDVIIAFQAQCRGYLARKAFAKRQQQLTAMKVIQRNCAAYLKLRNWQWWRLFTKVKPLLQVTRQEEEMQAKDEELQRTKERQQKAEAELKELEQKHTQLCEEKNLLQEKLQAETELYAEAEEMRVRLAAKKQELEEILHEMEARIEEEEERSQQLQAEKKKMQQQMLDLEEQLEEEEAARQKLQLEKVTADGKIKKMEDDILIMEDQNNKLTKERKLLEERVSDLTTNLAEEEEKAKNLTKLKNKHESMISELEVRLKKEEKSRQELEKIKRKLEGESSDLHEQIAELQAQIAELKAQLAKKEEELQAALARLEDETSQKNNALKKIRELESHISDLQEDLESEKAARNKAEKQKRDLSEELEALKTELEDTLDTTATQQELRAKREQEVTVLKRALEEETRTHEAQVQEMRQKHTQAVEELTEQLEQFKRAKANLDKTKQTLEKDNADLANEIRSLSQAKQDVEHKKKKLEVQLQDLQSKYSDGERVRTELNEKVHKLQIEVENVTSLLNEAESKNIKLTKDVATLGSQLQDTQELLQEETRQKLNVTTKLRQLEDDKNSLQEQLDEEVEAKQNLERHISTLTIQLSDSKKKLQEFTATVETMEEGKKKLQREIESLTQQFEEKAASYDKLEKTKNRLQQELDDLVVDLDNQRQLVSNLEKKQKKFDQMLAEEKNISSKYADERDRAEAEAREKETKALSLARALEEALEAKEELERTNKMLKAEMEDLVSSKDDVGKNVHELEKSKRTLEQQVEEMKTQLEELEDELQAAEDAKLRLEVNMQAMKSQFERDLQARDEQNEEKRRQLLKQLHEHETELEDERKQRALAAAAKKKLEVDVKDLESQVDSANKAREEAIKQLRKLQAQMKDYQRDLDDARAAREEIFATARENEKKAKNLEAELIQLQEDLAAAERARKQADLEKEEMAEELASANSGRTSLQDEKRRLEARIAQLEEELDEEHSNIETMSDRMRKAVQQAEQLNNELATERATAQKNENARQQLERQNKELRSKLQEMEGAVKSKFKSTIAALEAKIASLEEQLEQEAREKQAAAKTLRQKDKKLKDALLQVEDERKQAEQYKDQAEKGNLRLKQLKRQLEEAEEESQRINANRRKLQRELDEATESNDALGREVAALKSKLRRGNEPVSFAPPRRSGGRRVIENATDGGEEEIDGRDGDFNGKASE
T1 sequence (P02612 whole entry partner): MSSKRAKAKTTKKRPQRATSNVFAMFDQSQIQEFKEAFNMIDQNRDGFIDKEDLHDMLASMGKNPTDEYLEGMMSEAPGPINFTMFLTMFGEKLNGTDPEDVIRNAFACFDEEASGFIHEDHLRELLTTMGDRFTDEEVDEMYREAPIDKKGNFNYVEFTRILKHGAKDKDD
T1 sequence (P02607 whole entry partner): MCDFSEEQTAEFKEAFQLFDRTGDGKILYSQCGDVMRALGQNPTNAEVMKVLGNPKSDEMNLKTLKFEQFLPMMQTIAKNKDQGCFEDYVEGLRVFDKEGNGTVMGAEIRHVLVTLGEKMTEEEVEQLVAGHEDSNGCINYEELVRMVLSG

B1: M110 subunit: 110 kDa myofibrillar-binding subunit of PP1 (protein)
chain: MKMADAKQKRNEQLKRWIGSETDLEPPVVKRKKTKVKFDDGAVFLAACSSGDTEEVLRLLERGADINYANVDGLTALHQACIDDNVDMVKFLVENGANINQPDNEGWIPLHAAASCGYLDIAEYLISQGAHVGAVNSEGDTPLDIAEEEAMEELLQNEVNRQGVDIEAARKEEERIMLRDARQWLNSGHINDVRHAKSGGTALHVAAAKGYTEVLKLLIQARYDVNIKDYDGWTPLHAAAHWGKEEACRILVENLCDMEAVNKVGQTAFDVADEDILGYLEELQKKQNLLHSEKREKKSPLIESTANLDNNQTQKTFKNKETLIMEQEKNASSIESLEHEKADEEEEGKKDESSCSSEEEEDDDSESEAETDKAKTLANANTTSTQSASMTAPSVAGGQGTPTSPLKKFPTSTTKVSPKEEERKDESPASWRLGLRKTGSYGALAEITASKEAQKEKDSAGVIRSASSPRLSSSLDNKEKEKDGKGTRLAYVAPTIPRRLASTSDIDEKENRDSSASSIRSGSSYARRKWEEDVKKNSLNEGPTSLNTSYQRSGSFGRRQDDLVSSNVPSTASTVTSSAGLQKTLPASANTTTKSTTGSTSAGVQSSTSNRLWAEDSTEKEKDSVPTAVTVPVAPSVVNAAATTTAMTTATSGTVSSTSEVRERRRSYLTPVRDEESESQRKARSRQARQSRRSTQGVTLTDLQEAEKTIGRSRSTRTREQENEEKEKEEKEKQDKEKQEEKKESETKDDDYRQRYSRTVEEPYHRYRPTSTSTSTSSTSSLSTSTSSLSSSSQLNRPNSLIGITSAYSRSGTKESEREGGKKEEEKEEDKSQPKSIRERRRPREKRRSTGVSFWTQDSDENEQEHQSDSEEGTNKKETQSDSLSRYDTGSLSVSSGDRYDSAQGRSGSQSYLEDRKPYCSRLEKEDSTDFKKLYEQILAENEKLKAQLHDTNMELTDLKLQLEKTTQRQERFADRSLLEMEKRVSGKSQYLLGGKKSSRKKDI
recognised by digoxigenin-labelled M21 subunit in Far Western blotting [1]: recognised

B2: MBP-M110-(K933-I1004): maltose binding protein fusion of M110-(K933-I1004) (protein)
chain: KLYEQILAENEKLKAQLHDTNMELTDLKLQLEKTTQRQERFADRSLLEMEKRVSGKSQYLLGGKKSSRKKDI
modifications: left off: large carriers
digoxigenin-labelled probe recognises the full length M21 subunit and M21(M1-L146) in Far Western blotting [1]: recognised

binding to myosin [2]: bound to myosin
B3: GST-M21: GST fusion of the chicken gizzard M21 subunit (M1-K186) (protein)
chain: MSSLFTRSKEYTRSRKSQSDSPPSSPSPIAKTLRHERLSRLEAATTPATSDSYSDRASSRSSAYSRRENRLAALSSRAEEESNRDYKKLYESALSENQKLKSKLQEAQLELADIKSKLEKAAQQKHEKTSDRSSMLEMEKREKRALERKLSEMEEEMKILTELKSDNQRLKDENGALIRVISKLSK
modifications: left off: a dimerising Fc or GST; small tags and cut ends

binding to myosin [2]: bound to myosin
B4: GST-M110-(M377-K976): GST fusion of the C-terminal 600 residues of the M110 subunit from rat aorta (protein)
chain: MASVTNAHTASTQAAPAAVTTPTLSSNQGTPTSPVKKFPTSTTKISPKEEERKDESPASWRLGLRKTGSYGALAEITASKEAQKEKDTAGVIRSASSPRLSSSLDNKEKEKDNKGTRLAYVAPTIPRRLGSTSDIEEKENRESSNLRTSSSYTRRKWEDDLKKNSSINEGSTYHRSTSNRLWAEDSTEKEKDSAPTAATILVAPTVVSAAASSTTALTTTTAGTLSSTSEVRERRRSYLTPVRDEESESQRKARSRQARQSRRSTQGVTLTDLQEAEKTIGRSRSTRTREQENEEKDKEEKEKQDKEKQEEKKESEVSREDEYKQKYSRTYDETYARYRPVSTSSSSTPSSSSLSTLGSSLYASSQLNRPNSLVGITSAYSRGLTKDNEREGEKKEEEKEGEDKSQPKSIRERRRPREKRRSTGVSFWTQDSDENEQERQSDTEDGSSKRDTQTDSVSRYDSSSTSSSDRYDSLLGRSASYSYLEERKPYGSRLEKDDSTDFKKLYEQILAENEKLKAQLHDTNMELTDLKLQLEKATQRQERFADRSLLEMEKRERRALERRISEMEEELKMLPDLKADNQRLKDENGALIRVISKLSK
modifications: left off: a dimerising Fc or GST
notes: GST fusion of the C-terminal 600 residues of the M110 subunit from rat aorta

B5: M110-(R714-L934): chicken gizzard M110 fragment, residues 714-934 (protein)
chain: RSTRTREQENEEKEKEEKEKQDKEKQEEKKESETKDDDYRQRYSRTVEEPYHRYRPTSTSTSTSSTSSLSTSTSSLSSSSQLNRPNSLIGITSAYSRSGTKESEREGGKKEEEKEEDKSQPKSIRERRRPREKRRSTGVSFWTQDSDENEQEHQSDSEEGTNKKETQSDSLSRYDTGSLSVSSGDRYDSAQGRSGSQSYLEDRKPYCSRLEKEDSTDFKKLGTGRRFTTS
modifications: left off: large carriers
recognised by digoxigenin-labelled M21 subunit in Far Western blotting [1]: not

B6: MBP-M110-(R714-L934): maltose binding protein fusion of M110-(R714-L934) (protein)
chain: RSTRTREQENEEKEKEEKEKQDKEKQEEKKESETKDDDYRQRYSRTVEEPYHRYRPTSTSTSTSSTSSLSTSTSSLSSSSQLNRPNSLIGITSAYSRSGTKESEREGGKKEEEKEEDKSQPKSIRERRRPREKRRSTGVSFWTQDSDENEQEHQSDSEEGTNKKETQSDSLSRYDTGSLSVSSGDRYDSAQGRSGSQSYLEDRKPYCSRLEKEDSTDFKKLGTGRRFTTS
modifications: left off: large carriers
digoxigenin-labelled probe recognises the full length M21 subunit and M21(M1-L146) in Far Western blotting [1]: not

B7: MBP-M110-(R714-I1004): maltose binding protein fusion of M110-(R714-I1004) (protein)
chain: RSTRTREQENEEKEKEEKEKQDKEKQEEKKESETKDDDYRQRYSRTVEEPYHRYRPTSTSTSTSSTSSLSTSTSSLSSSSQLNRPNSLIGITSAYSRSGTKESEREGGKKEEEKEEDKSQPKSIRERRRPREKRRSTGVSFWTQDSDENEQEHQSDSEEGTNKKETQSDSLSRYDTGSLSVSSGDRYDSAQGRSGSQSYLEDRKPYCSRLEKEDSTDFKKLYEQILAENEKLKAQLHDTNMELTDLKLQLEKTTQRQERFADRSLLEMEKRVSGKSQYLLGGKKSSRKKDI
modifications: left off: large carriers
digoxigenin-labelled probe recognises the full length M21 subunit and M21(M1-L146) in Far Western blotting [1]: recognised

From patent US6884600B1, “Protein phosphatase-1 catalytic subunit interactions” (Medical Research Council London, priority 1996, dated 2005)
